Reference: article PMC7239026, “PepO is a target of the two-component systems VicRK and CovR required for systemic virulence of Streptococcus mutans” (Virulence, 2020)

What was measured:
[1] = target: T1, human C4b-binding protein (C4BP) (human, UniProt P04003 49-597; P20851 18-252); test: ELISA; human glycoproteins coated on 96-well plates (5 ug/mL in 75 mM sodium carbonate buffer pH 9.6, 18 h at 4°C); blocked with 3% fish gelatin; rPepO (10 to 50 ug/mL) or rCnmA (0.125 to 2 ug/mL) in 50 mM HEPES pH 7.4, 150 mM NaCl, 2 mM CaCl2, 50 ug/mL BSA, 2 h at 37°C; bound protein detected with rabbit antiserum and peroxidase conjugate, A450 nm; wells with 1% BSA as control; settings: both partners purified
T1 construct: Named only as a whole ('a multimeric glycoprotein'); source: bought: Athens Research & Technology
T1 sequence (looked up) 1: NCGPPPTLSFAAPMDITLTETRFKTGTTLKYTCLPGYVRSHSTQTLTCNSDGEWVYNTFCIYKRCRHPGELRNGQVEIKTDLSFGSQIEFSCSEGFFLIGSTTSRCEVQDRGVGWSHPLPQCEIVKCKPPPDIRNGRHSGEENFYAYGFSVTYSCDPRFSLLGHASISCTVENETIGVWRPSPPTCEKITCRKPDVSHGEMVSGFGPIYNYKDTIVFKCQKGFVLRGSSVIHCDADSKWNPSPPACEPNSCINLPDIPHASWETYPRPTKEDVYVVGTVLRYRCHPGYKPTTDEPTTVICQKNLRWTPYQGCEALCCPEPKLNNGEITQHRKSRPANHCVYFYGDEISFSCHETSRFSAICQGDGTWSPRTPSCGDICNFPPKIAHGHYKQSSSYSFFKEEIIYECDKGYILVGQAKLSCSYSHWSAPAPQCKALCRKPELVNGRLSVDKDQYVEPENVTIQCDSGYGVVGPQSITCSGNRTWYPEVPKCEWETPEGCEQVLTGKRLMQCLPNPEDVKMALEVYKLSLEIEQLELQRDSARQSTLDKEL
T1 sequence (looked up) 2: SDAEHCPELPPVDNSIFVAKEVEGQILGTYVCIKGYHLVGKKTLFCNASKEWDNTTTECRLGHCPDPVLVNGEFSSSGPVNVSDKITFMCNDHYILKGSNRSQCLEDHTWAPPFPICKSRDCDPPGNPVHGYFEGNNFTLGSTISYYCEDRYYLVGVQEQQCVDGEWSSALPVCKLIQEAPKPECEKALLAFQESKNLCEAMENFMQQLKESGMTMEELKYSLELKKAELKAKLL

[2] = target: T2, human complement protein C1q (human, UniProt P02745 23-245; P02746 28-253; P02747 29-245); test: as above; settings: both partners purified
T2 construct: Complement C1q subcomponent subunit A, human; Complement C1q subcomponent subunit B, human; Complement C1q subcomponent subunit C, human; Named only as a whole; source: bought: Calbiochem
T2 sequence (P02745 23-245, chain 1 of 3): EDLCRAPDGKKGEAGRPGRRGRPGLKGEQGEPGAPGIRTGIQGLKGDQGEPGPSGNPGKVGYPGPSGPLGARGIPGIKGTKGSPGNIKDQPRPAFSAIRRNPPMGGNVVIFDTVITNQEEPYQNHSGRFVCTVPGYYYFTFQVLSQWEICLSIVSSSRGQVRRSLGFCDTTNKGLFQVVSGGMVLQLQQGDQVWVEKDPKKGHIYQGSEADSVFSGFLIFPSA
T2 sequence (P02746 28-253, chain 2 of 3): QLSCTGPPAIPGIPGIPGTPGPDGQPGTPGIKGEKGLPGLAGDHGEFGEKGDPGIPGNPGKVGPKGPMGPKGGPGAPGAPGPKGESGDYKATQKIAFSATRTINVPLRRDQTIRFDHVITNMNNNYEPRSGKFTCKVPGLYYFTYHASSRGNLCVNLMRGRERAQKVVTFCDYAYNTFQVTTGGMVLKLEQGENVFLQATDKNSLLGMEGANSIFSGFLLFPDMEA
T2 sequence (P02747 29-245, chain 3 of 3): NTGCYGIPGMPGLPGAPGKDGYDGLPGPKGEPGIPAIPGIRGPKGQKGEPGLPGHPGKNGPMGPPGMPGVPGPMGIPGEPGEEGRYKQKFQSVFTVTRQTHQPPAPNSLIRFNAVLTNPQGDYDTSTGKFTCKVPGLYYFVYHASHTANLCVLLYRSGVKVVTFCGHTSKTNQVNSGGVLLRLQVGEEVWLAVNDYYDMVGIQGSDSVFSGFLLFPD

B1: His-tagged PepO recombinant protein (rPepO), endopeptidase O of Streptococcus mutans (natural protein)
chain: MVRLQDDFYNAVNGQWEEAAVIPDDKPRTGGFSDLADDIEDLMLETTDKWLDGKDVPDDSILQNFVKFHRQVADYDAREETGVKPVLPLIEEYKSLTSFADFASNIATYEMAGKPNELPFGVAPDFMNAQMNVLWAEAPNLILPDTTYYAEGNDKGKELLAKWRTMQEELLPKFGFEEAEIKDLLDKVLTLDAKLAQYVLSSEESSEYVKLYHPYDWADFTKLTPELPLDAIFTQILGQKPDKVIVPEERFWTNFAAEFYSEKNWPFLKATLVLAAASSYNSYLTDDIRILSGSYNRALSGTPQAMGKKKAAFYLAQGPYNQALGLWYAGEKFSPEAKKDVEAKVATMIEVYKERLHKTDWLAQETRNKAITKLNVITPHIGYPEQLPKTYAQKIIDDNLSLVENAQNLAKISIAYNWSKWNQPVDRSEWHMPAHMVNAYYDPQQNQIVFPAAILQAPFYSLEQSSSANYGGIGAVIAHEISHAFDTNGASFDENGSLNNWWTDEDYAAFKKRTDRVVEQFEGLDSYGAKVNGQLTVSENVADLGGLACALEAAKREADFSVRDFFINFATIWRMKARDEYMQMLASIDVHAPAKWRTNVTITNFDEFHQEFAVKEGDGMWRDEDKRVIIW
notes: PepO (endopeptidase O) of Streptococcus mutans strain UA159; entire PepO coding region (1896 bp) amplified from UA159 genomic DNA and cloned into pET-16B; Vector pET-16B; also called full-length PepO; source: E. coli BL21, purified under native conditions (Ni-NTA), dialyzed in PBS
binding result [1]: binds | binding result [2]: binds
